The values that follow come from publication PMC12416549 (2024).

B1: A47Y (designed binder)
chain: SMEEEVEKAAKEYEKKKKEAIEKHLEKLKAKDKEAAERFLKELEEAYKEYAKDEAKTMSEEEAKRRAKKYKEKVLLSELSEEEQKEIKEAEEKLVRTILKYVEEAAK
B2: E92P (designed binder)
chain: SMEEEVEKAAKEYEKKKKEAIEKHLEKLKAKDKEAAERFLKELEEAAKEYAKDEAKTMSEEEAKRRAKKYKEKVLLSELSEEEQKEIKEAEPKLVRTILKYVEEAAK
B3: E42T (designed binder)
chain: SMEEEVEKAAKEYEKKKKEAIEKHLEKLKAKDKEAAERFLKTLEEAAKEYAKDEAKTMSEEEAKRRAKKYKEKVLLSELSEEEQKEIKEAEEKLVRTILKYVEEAAK
B4: A30H (designed binder)
chain: SMEEEVEKAAKEYEKKKKEAIEKHLEKLKHKDKEAAERFLKELEEAAKEYAKDEAKTMSEEEAKRRAKKYKEKVLLSELSEEEQKEIKEAEEKLVRTILKYVEEAAK
B5: L79D (designed binder)
chain: SMEEEVEKAAKEYEKKKKEAIEKHLEKLKAKDKEAAERFLKELEEAAKEYAKDEAKTMSEEEAKRRAKKYKEKVLLSEDSEEEQKEIKEAEEKLVRTILKYVEEAAK
B6: E86D (designed binder)
chain: SMEEEVEKAAKEYEKKKKEAIEKHLEKLKAKDKEAAERFLKELEEAAKEYAKDEAKTMSEEEAKRRAKKYKEKVLLSELSEEEQKDIKEAEEKLVRTILKYVEEAAK
B7: E92N (designed binder)
chain: SMEEEVEKAAKEYEKKKKEAIEKHLEKLKAKDKEAAERFLKELEEAAKEYAKDEAKTMSEEEAKRRAKKYKEKVLLSELSEEEQKEIKEAENKLVRTILKYVEEAAK
B8: E86A (designed binder)
chain: SMEEEVEKAAKEYEKKKKEAIEKHLEKLKAKDKEAAERFLKELEEAAKEYAKDEAKTMSEEEAKRRAKKYKEKVLLSELSEEEQKAIKEAEEKLVRTILKYVEEAAK
B9: E19H (designed binder)
chain: SMEEEVEKAAKEYEKKKKHAIEKHLEKLKAKDKEAAERFLKELEEAAKEYAKDEAKTMSEEEAKRRAKKYKEKVLLSELSEEEQKEIKEAEEKLVRTILKYVEEAAK
B10: A36G (designed binder)
chain: SMEEEVEKAAKEYEKKKKEAIEKHLEKLKAKDKEAGERFLKELEEAAKEYAKDEAKTMSEEEAKRRAKKYKEKVLLSELSEEEQKEIKEAEEKLVRTILKYVEEAAK
B11: E62N (designed binder)
chain: SMEEEVEKAAKEYEKKKKEAIEKHLEKLKAKDKEAAERFLKELEEAAKEYAKDEAKTMSEENAKRRAKKYKEKVLLSELSEEEQKEIKEAEEKLVRTILKYVEEAAK
B12: S80F (designed binder)
chain: SMEEEVEKAAKEYEKKKKEAIEKHLEKLKAKDKEAAERFLKELEEAAKEYAKDEAKTMSEEEAKRRAKKYKEKVLLSELFEEEQKEIKEAEEKLVRTILKYVEEAAK
B13: E82S (designed binder)
chain: SMEEEVEKAAKEYEKKKKEAIEKHLEKLKAKDKEAAERFLKELEEAAKEYAKDEAKTMSEEEAKRRAKKYKEKVLLSELSESEQKEIKEAEEKLVRTILKYVEEAAK
B14: E103P (designed binder)
chain: SMEEEVEKAAKEYEKKKKEAIEKHLEKLKAKDKEAAERFLKELEEAAKEYAKDEAKTMSEEEAKRRAKKYKEKVLLSELSEEEQKEIKEAEEKLVRTILKYVPEAAK
B15: E5Y (designed binder)
chain: SMEEYVEKAAKEYEKKKKEAIEKHLEKLKAKDKEAAERFLKELEEAAKEYAKDEAKTMSEEEAKRRAKKYKEKVLLSELSEEEQKEIKEAEEKLVRTILKYVEEAAK
B16: A46I (designed binder)
chain: SMEEEVEKAAKEYEKKKKEAIEKHLEKLKAKDKEAAERFLKELEEIAKEYAKDEAKTMSEEEAKRRAKKYKEKVLLSELSEEEQKEIKEAEEKLVRTILKYVEEAAK
B17: E14F (designed binder)
chain: SMEEEVEKAAKEYFKKKKEAIEKHLEKLKAKDKEAAERFLKELEEAAKEYAKDEAKTMSEEEAKRRAKKYKEKVLLSELSEEEQKEIKEAEEKLVRTILKYVEEAAK
B18: L43G (designed binder)
chain: SMEEEVEKAAKEYEKKKKEAIEKHLEKLKAKDKEAAERFLKEGEEAAKEYAKDEAKTMSEEEAKRRAKKYKEKVLLSELSEEEQKEIKEAEEKLVRTILKYVEEAAK
B19: I98A (designed binder)
chain: SMEEEVEKAAKEYEKKKKEAIEKHLEKLKAKDKEAAERFLKELEEAAKEYAKDEAKTMSEEEAKRRAKKYKEKVLLSELSEEEQKEIKEAEEKLVRTALKYVEEAAK
B20: K100G (designed binder)
chain: SMEEEVEKAAKEYEKKKKEAIEKHLEKLKAKDKEAAERFLKELEEAAKEYAKDEAKTMSEEEAKRRAKKYKEKVLLSELSEEEQKEIKEAEEKLVRTILGYVEEAAK
B21: D53C (designed binder)
chain: SMEEEVEKAAKEYEKKKKEAIEKHLEKLKAKDKEAAERFLKELEEAAKEYAKCEAKTMSEEEAKRRAKKYKEKVLLSELSEEEQKEIKEAEEKLVRTILKYVEEAAK
B22: K18Y (designed binder)
chain: SMEEEVEKAAKEYEKKKYEAIEKHLEKLKAKDKEAAERFLKELEEAAKEYAKDEAKTMSEEEAKRRAKKYKEKVLLSELSEEEQKEIKEAEEKLVRTILKYVEEAAK
B23: E61L (designed binder)
chain: SMEEEVEKAAKEYEKKKKEAIEKHLEKLKAKDKEAAERFLKELEEAAKEYAKDEAKTMSELEAKRRAKKYKEKVLLSELSEEEQKEIKEAEEKLVRTILKYVEEAAK
B24: V6M (designed binder)
chain: SMEEEMEKAAKEYEKKKKEAIEKHLEKLKAKDKEAAERFLKELEEAAKEYAKDEAKTMSEEEAKRRAKKYKEKVLLSELSEEEQKEIKEAEEKLVRTILKYVEEAAK
B25: E44W (designed binder)
chain: SMEEEVEKAAKEYEKKKKEAIEKHLEKLKAKDKEAAERFLKELWEAAKEYAKDEAKTMSEEEAKRRAKKYKEKVLLSELSEEEQKEIKEAEEKLVRTILKYVEEAAK

This assay concerns the target T1, TNFR1 (Homo sapiens, UniProt P19438).
T1 chain: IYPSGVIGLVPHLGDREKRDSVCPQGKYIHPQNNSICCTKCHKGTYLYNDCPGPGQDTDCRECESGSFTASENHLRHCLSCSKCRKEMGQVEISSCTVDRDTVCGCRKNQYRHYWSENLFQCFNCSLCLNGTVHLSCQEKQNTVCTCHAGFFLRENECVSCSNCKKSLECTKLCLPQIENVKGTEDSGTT
The assay is described as follows: yeast display SC50.
As to B1, the “apparent Kd (screen)” value came out at 0.49 nM.

Turning to B2, the “apparent Kd (screen)” value worked out at 7.78 nM.

For B3, the “apparent Kd (screen)” value came out at 9.41 nM.

Take B4: the “apparent Kd (screen)” value came out at 0.869 nM.

As to B5, the “apparent Kd (screen)” value was 16.7 nM.

On to B6, for which the “apparent Kd (screen)” value came out at 0.49 nM.

With B7, the “apparent Kd (screen)” value came out at 1.05 nM.

Consider B8, for which the “apparent Kd (screen)” value is 0.653 nM.

As for B9, the “apparent Kd (screen)” value was 0.49 nM.

For B10, the “apparent Kd (screen)” value worked out at 0.446 nM.

B11: the “apparent Kd (screen)” value worked out at 0.49 nM.

Consider B12, for which the “apparent Kd (screen)” value was determined as 2.73 nM.

B13: the “apparent Kd (screen)” value was found to be 0.49 nM.

Turning to B14, the “apparent Kd (screen)” value turned out to be 0.49 nM.

For B15, the “apparent Kd (screen)” value turned out to be 1.54 nM.

As for B16, the “apparent Kd (screen)” value was determined as 3 nM.

Take B17: the “apparent Kd (screen)” value was determined as 29.5 nM.

As to B18, the “apparent Kd (screen)” value worked out at 1.4 nM.

Turning to B19, the “apparent Kd (screen)” value worked out at 1.69 nM.

Regarding B20, the “apparent Kd (screen)” value worked out at 0.277 nM.

In the case of B21, the “apparent Kd (screen)” value is 2.73 nM.

Consider B22, for which the “apparent Kd (screen)” value amounted to 1.05 nM.

With B23, the “apparent Kd (screen)” value stood at 1.69 nM.

On to B24, for which the “apparent Kd (screen)” value stood at 2.73 nM.

For the molecule B25, the “apparent Kd (screen)” value was found to be 3.3 nM.
